This passage reports 效价 (ELISA titer, highest positive dilution) (dilution factor) results from CN113150138A.

The experiment concerns the target 重组KPC-2蛋白 (recombinant KPC-2 protein, Klebsiella pneumoniae carbapenemase KPC-2) (Klebsiella pneumoniae (肺炎克雷伯菌)) (UniProt Q848S6). Nature of the experiment: indirect ELISA, KPC-2 coated at 100 ng/well, antibody diluted 1:10000 to 1:2560000. (ELISA stands for enzyme-linked immunosorbent assay.)
Chain of UniProt Q848S6 (Q848S6 25-293): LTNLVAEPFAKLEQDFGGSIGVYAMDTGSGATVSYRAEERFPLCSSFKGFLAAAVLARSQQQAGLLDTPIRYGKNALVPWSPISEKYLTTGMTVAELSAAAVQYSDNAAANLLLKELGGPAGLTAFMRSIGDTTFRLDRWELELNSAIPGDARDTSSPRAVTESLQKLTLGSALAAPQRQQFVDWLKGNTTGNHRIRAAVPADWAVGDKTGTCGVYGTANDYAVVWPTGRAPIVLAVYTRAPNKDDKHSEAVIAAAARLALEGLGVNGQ

B1: KPC-2单克隆抗体 1D7 (antibody, V domains shown)
VH: EVQLQQSGPELVKPGASMKISCKASGYSFTGYTMNWVKQSHGKNLEWIGLINPYNGVTTYNQRFKDKATLTVDKSSITAYMELLSLTSEDSAVYYCARRGLLGLYAMDYWGQGTSVTVSS
VL: DVQITQSPSYLAASPGETITINCRASESIFKFLAWYQEKPGKTNRLLIYSGSTLQSGIPSRFSGSGSGTDFTLTISSLEPEDFAMYYCQQHNEYPLTFGAGTKLELK
As to B1, the 效价 (ELISA titer, highest positive dilution) (dilution factor) is above 2e+06.

B2: KPC-2单克隆抗体 4B2 (antibody, V domains shown)
VH: QVQLQQPGAELVKPGASVKMSCKASGYTFTSYNMHWVKQTPGQGLEWIGGLYPGNGDTSYNQKFKGRATLTADKSSSTAYMKLSSLTSEDSAVYFCARVGYGHYYFDYWGQGTTLTVSS
VL: DIKMTQSPSSMYASLGERVTIICKASQDINNYLSWFQQKPGKSPKTLIYRANRLAEGVPSRFSGIGSGQDYSLTISSLEYEDMGIYYCLQYDEFPLTFGAGTKLELK
Take B2: the 效价 (ELISA titer, highest positive dilution) (dilution factor) was above 2e+06.
